# Laboratory results from patent publication US7906119 (Human Genome Sciences, dated 2011).
# B1: PWD0283 (IgG1 format) (antibody, V domains shown)
# VH: EVQLLESGGGLVQPGGSLRLSCAASGFTFSSYATSWVRQAPGKGLEWVSAISGSGGSTYYADSVKGRFTISRDNSKNTLYLQMNSLRAEDTAVYYCARVGGAIRFDSWGRGTLVTVSS
# VL: SYELTQPPSASETPGQRVSISCSGGTSNIGSNTINWYQQVPGTAPKLLIYFNNRRPAGVPARFSASKSGTSASLTISGLQSEDEADYYCSAWDDSLSGVVFGGGTKLTVLG
# Target: PA heptamer (Bacillus anthracis, UniProt P13423 197-764)
# Assay: BIAcore; PA heptamer immobilized on CM5 chip, IgG1 in solution
# Chain of PA heptamer (P13423 197-764): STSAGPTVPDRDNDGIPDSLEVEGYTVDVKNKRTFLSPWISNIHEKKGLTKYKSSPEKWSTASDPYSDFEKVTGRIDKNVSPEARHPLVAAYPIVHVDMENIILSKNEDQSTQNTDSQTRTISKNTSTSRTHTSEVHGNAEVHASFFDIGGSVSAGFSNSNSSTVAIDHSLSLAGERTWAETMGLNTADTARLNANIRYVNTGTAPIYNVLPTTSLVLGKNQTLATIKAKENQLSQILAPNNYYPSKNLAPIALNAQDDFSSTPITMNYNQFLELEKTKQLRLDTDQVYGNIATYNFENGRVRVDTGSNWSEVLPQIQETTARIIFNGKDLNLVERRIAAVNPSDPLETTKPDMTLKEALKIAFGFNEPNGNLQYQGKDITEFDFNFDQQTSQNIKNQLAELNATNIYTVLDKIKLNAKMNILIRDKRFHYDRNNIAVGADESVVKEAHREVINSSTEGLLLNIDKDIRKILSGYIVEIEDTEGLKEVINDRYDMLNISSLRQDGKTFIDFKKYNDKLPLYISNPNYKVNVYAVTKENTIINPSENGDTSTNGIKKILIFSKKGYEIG
binder,measurement,value
B1,Kd,0.187 nM
same,koff,0.000426 s⁻¹
same,kon,2.28e+06 M⁻¹ s⁻¹
